Assay results: article PMC8754659

Target: SpyCas9 (Streptococcus pyogenes, UniProt Q99ZW2 1-1368)
Experiment: EMSA

SpyCas9, sequence (Q99ZW2 whole entry): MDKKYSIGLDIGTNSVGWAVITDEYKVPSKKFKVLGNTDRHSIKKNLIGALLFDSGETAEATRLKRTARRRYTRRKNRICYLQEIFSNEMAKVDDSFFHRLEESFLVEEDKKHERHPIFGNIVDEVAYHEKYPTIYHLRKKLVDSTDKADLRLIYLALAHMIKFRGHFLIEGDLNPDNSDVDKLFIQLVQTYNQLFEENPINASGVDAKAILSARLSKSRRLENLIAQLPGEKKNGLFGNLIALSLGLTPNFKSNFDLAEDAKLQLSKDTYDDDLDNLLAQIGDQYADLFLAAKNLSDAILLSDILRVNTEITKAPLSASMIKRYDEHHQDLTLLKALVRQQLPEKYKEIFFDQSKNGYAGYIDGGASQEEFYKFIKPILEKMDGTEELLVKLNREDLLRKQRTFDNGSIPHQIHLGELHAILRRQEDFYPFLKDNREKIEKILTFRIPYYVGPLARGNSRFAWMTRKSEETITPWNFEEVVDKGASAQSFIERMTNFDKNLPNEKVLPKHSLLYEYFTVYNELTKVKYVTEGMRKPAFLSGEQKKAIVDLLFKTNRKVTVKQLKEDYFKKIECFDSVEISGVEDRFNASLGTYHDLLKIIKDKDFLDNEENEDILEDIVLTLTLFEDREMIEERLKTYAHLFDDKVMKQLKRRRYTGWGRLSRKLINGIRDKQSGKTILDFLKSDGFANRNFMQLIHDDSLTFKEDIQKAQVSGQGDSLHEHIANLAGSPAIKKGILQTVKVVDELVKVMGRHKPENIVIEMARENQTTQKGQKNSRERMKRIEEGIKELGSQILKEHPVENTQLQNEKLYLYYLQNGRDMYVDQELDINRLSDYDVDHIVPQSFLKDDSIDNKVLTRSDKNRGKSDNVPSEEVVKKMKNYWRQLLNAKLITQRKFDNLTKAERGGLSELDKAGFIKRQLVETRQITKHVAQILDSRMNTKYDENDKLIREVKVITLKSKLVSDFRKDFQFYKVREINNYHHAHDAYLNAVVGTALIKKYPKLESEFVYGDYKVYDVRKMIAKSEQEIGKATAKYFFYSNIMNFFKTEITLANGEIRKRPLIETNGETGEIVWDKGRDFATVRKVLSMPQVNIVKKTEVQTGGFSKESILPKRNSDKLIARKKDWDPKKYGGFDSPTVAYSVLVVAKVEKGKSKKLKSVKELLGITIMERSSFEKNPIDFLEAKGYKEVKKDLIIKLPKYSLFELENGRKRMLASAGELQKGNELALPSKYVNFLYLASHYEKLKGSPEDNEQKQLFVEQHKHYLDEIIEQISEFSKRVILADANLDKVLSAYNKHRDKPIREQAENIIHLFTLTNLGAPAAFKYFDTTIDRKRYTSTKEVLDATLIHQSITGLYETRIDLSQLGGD

B1: sgRNA (20 nt spacer) + FAM target DNA 38 bp (mixed)
DNA 1: ATTGCCGTCAGGAAATTAGGTGCGCTTAGCTGGTATTG
DNA 2: CAATACCAGCTAAGCGCACCTAATTTCCTGACGGCAAT
- binding result: binds
